Assay results taken from the RNAGym collection of RNA variant scans (doi:10.7554/elife.80360).

B1: HDV Ribozyme (parent)
chain: GGCCGGCAUGGUCCCAGCCUCCUCGCUGGCGCCGGCUGGGCAACAUUCCGAGGGGACCGUCCCCUCGGUAAUGGCGAAUGGGACCCA

Variants of: B1
Assay: self-cleavage, relative activity (ratio to wild type); higher = more cleavage; co-transcriptional

Row | Variant | self-cleavage
1 | G6U C62A | 0.54
2 | G6A U20G | 0.262
3 | G5U C14U | 0.612
4 | G6A C24G | 0.108
5 | G5U U12C | 0.0831
6 | G5U U12A | 0.332
7 | G6A U37C | 0.853
8 | G5U G25C | 0
9 | G5U G25U | 0
10 | G6C G73U | 0.0923
11 | G6C U9A | 0.256
12 | G5C U60A | 0.166
13 | G5C U60C | 0
14 | G6U C48G | 0.374
15 | G5U C75U | 0.0573
16 | G6U U20C | 0.133
17 | G6U U20A | 0.0978
18 | G6A C64A | 0.869
19 | G6A C64G | 0.604
20 | G5U A43C | 0
21 | G6U C24G | 0.0462
22 | G5C U37C | 0.161
23 | G5U A45U | 0.277
24 | G5C G6U | 0.185

Row | Variant | self-cleavage
25 | G5U C57A | 0.383
26 | G6U G67C | 0.73
27 | G6U A42C | 0
28 | G6U A42G | 0.214
29 | G6U C19G | 0.0692
30 | G6U C19A | 0.0326
31 | G5U A77U | 0.158
32 | G5U A77C | 0.192
33 | G5U G50C | 0.192
34 | G6U G31U | 0.121
35 | G6C A87U | 0.282
36 | G6C A87C | 0.312
37 | G5U C30A | 0.0462
38 | G6C U65C | 0.277
39 | G6C C36A | 0.095
40 | G6U G10U | 0.0791
41 | G6C U46C | 0.145
42 | G6C A77G | 0.0791
43 | G6A G76A | 0.744
44 | G5U G10C | 0.462
45 | G5U G10U | 0.181
46 | G6C G53U | 0.138
47 | G6U A56U | 0.703
48 | G6A C19A | 0.0346

Row | Variant | self-cleavage
49 | C7A A43C | 0.0923
50 | G6U C84A | 0.375
51 | G6U C84U | 0.208
52 | G6U G52A | 0.739
53 | C7A C19G | 0.145
54 | C7A C19A | 0.0277
55 | G6C C86A | 0.482
56 | G6C U69G | 0.166
57 | G6C | 0.294
58 | G6U | 0.63
59 | G6A | 0.726
60 | G5C G53A | 0.162
61 | G6A C44G | 0.111
62 | G5U U79G | 0
63 | G5U U27A | 0.443
64 | G5U U27G | 0.665
65 | G5C G52C | 0.095
66 | G5C G52A | 0.252
67 | G6A A45U | 0.486
68 | G6C G28C | 0
69 | G6U C49G | 0.306
70 | G6U C49A | 0.582
71 | G6U C49U | 0.485
72 | G5U | 0.469

Row | Variant | self-cleavage
73 | G6A C26U | 0.787
74 | G6U A71U | 0.415
75 | G6A A77C | 0.178
76 | G6A G34U | 0
77 | G5U C48A | 0.712
78 | G6U C44U | 0.162
79 | G5U G54A | 0.314
80 | G6U G35C | 0.0437
81 | G6U U72C | 0
82 | G6U G17A | 0.19
83 | G6U G17C | 0.0554
84 | G6A C13U | 0.145
85 | G5C U46A | 0.0639
86 | G5C U46G | 0.0573
87 | G5C U46C | 0.26
88 | G6C G40A | 0.259
89 | G5U G28C | 0.0554
90 | G6C A56C | 0.401
91 | G6A A8G | 0.554
92 | G5U G6A | 0.208
93 | G5U C66G | 0.554
94 | G5U G53A | 0.332
95 | G5U G53C | 0.489
96 | G5U G53U | 0.268

Row | Variant | self-cleavage
97 | G5U A56C | 0.831
98 | G5U A56U | 0.431
99 | G5U G76C | 0.227
100 | G5U A71U | 0.185
101 | G5U A71C | 0
102 | G6A G35A | 0.302
103 | G6C A43U | 0.0594
104 | G6C A16C | 0.712
105 | G6C A16G | 0.151
106 | G6C G17C | 0
107 | G5U C61A | 0.399
108 | G5U C61G | 0.262
109 | G5U U72G | 0.277
110 | G5U U72A | 0.128
111 | G5U U72C | 0.119
112 | G6A G82A | 0.252
113 | G6C C21A | 0
114 | G6A U79C | 0.128
115 | G6A U79A | 0.322
116 | G6C G82C | 0.0405
117 | G6C G82A | 0
118 | G5U U20C | 0
119 | G6C C48U | 0.277
120 | G6U C7A | 0.227

Row | Variant | self-cleavage
121 | G6U C22A | 0.0489
122 | G6U G40A | 0.587
123 | G6U G40C | 0.193
124 | G6U C15G | 0.0875
125 | C7A C13G | 0
126 | C7A C13U | 0.0361
127 | G6A C7G | 0.208
128 | G6A C7A | 0.185
129 | G5U C49A | 0.415
130 | G5U C49U | 0.791
131 | G5U U65A | 0.453
132 | G6C U79A | 0.119
133 | G5U C18A | 0.0875
134 | G6U G82U | 0
135 | G6A G53U | 0.786
136 | G6A G53A | 0.874
137 | G6U G76C | 0.676
138 | G6A A78G | 0.554
139 | G6A A78C | 0.0615
140 | G6U C61U | 0.525
141 | G5U G82U | 0.128
142 | G5U G82A | 0.185
143 | G6U A78C | 0.252
144 | G5C G54A | 0.0831

Row | Variant | self-cleavage
145 | G6U A70G | 0.571
146 | G6A G10A | 0.372
147 | G6U G74U | 0.151
148 | G6U G74A | 0.16
149 | G6A A16C | 0.111
150 | G6A A16U | 0.446
151 | G6A G39A | 0.277
152 | G6A C41G | 0.107
153 | G6A C41A | 0.326
154 | G6A C41U | 0.431
155 | G5U U46A | 0.119
156 | G6A U60C | 0.789
157 | G6A U60G | 0.365
158 | G6A U60A | 0.811
159 | G6U C13U | 0.249
160 | G6A C61U | 0.899
161 | G6U G29U | 0.104
162 | G6C A45G | 0.361
163 | G6C A45U | 0.0615
164 | G6A U72G | 0.246
165 | G6A U72A | 0.0875
166 | G5C G81U | 0.131
167 | G5C G81C | 0
